Test results from patent US6297356, “Telomere repeat binding factors and diagnostic and therapeutic use thereof” (The Rockfeller University).

Molecular target: T1, TRF1 (MTRF12) (Mus musculus, UniProt P70371 SEQ:1-421)
T1 sequence: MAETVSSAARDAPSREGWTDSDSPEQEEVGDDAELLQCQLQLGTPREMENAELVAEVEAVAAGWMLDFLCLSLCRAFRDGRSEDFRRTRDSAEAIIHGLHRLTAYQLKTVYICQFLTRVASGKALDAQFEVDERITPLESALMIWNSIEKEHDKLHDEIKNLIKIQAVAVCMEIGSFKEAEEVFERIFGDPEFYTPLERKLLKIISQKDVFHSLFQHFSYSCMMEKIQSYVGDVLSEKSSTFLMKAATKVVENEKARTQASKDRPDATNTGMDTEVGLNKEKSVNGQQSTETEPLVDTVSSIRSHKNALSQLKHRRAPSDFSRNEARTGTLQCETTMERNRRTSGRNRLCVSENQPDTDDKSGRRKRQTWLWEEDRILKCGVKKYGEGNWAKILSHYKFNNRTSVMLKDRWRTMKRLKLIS
Assay: EMSA; reticulocyte lysate
Conditions: chain copies: 2; label: labelled
Source text: Figure 6: FIG. 6 depicts a gel-shift experiment showing telomeric repeat binding activity of protein encoded by the mouse MTRF12 cDNA. The cDNA was transcribed using T3 RNA polymerase and translated in a rabbit reticulocyte lysate. The probe is a $(TTAGGG)12$-containing restriction fragment. Competitions were done with plasmids containing long arrays of telomeric DNAs with the indicated sequence. Gel-shift methods are as described by (Zhong et al, 1992). […] Shown is two interphase nuclei in which the anti-FLAG antibodies detect a speckled TRF pattern (green) against the background of DAPI stained DNA (blue). […] Shown is a metaphase spread in which the anti-HA antibody detects TRF at each chromosome end (green). The DNA is stained with DAPI (blue).
The mouse cDNA (MTRF12) contained its own initiator codon and was transcribed and translated without further modification using the T3 promoter in its pBluescript vector. Similar to the human cDNA, a ~60 kD protein was synthesized that bound TTAGGG repeats but not TTGGGG or TTAGGC repeats (FIG. 6).

B1: (TTAGGG)12 restriction fragment (dsDNA)
DNA 1: GTACCCGGGGATCGTGACTCTAGAGGGGCCCTAACCCTAACCCTAACCCTAACCCTAACCCTAACCCTAACCCTAACCCTAACCCTAACCCTAACCCTAACCCTAACCCGGGTCGAATTCGATCTCTAGAGTCGACCTGCAGGCATGC
DNA 2: GCATGCCTGCAGGTCGACTCTAGAGATCGAATTCGACCCGGGTTAGGGTTAGGGTTAGGGTTAGGGTTAGGGTTAGGGTTAGGGTTAGGGTTAGGGTTAGGGTTAGGGTTAGGGTTAGGGCCCCTCTAGAGTCACGATCCCCGGGTAC
- binding result: binds
